The values below come from patent US20230226096A1 (Orna Therapeutics, Inc., priority 2020, published 2023).

The labels stand for the following.
B1: Potamipivirus B (nucleic acid)
DNA: TTTCAACGTCGTGGCTGACGTTAAAAAGCCACAATTCCACTTACCTTTTACCTTTTATGTTTAATGTTTGTTAGTTTTGTGATCTTTAACAAATAGATCTAAATAATTTGTTGGTAACCAATCTCGGATGTTTCGGCTGCATTGTAGTTTATTTATTTCATTTTAGTTGTAGGTGGCCACTACGTCCTGGAATCATACATGGTAACATGTACCTCGGCGGTTATCCACTATTACGCTAATCTAAGAATATTTAAATGAAAATGTAAGTGTTACGGCTGACTTTGGGCCTGATAGTTAAATGCTCGCACTGACAGATAGTACCCTCCTTTAGGATCGATTCTGTTACATGGGATCCATTTTGGTGCCCCACTGATTCAACCTCTTTGTTGAAAAAGAGTTAGCATACTACAAATTTTCCAAACAAAAACCCTTTTTAATGACTACAACTTATGATTTTATGAATTTTACTGCTCTTGAAAAAGATATTTTGACATTGATCGCTGTACTGTTTCAGACATTCATTGCATCCATTTTTGTTGGCTACTCCTCACAAACTCAAAACTTTTCCACACGAGAAACCTTGTTTATTGAATTTTGCCTTTATATTTTGGAACTTGTTGTTGGATTTATTGTTTGCTTAATTATTGACCTCACACCTGTTTTAAACACTACAAT
modifications: Potamipivirus B
B2: Ljungan Virus 87-012 (nucleic acid)
DNA: CTCATTGCCCACACCTGGTTGGTTCCCAGGTTCATACAATAACCATCAATAAACTTTTAACATCTAAGATAGTATTATCCCATACTAGACTGGACGAAGCCGCTTGGAATAAGTCTAGTCTTATCTTGTATGTGTCCTGCACTGAACTTGTTTCTGTCTCTGGAGTGCTCTACACTTCAGTAGGGGCTGTACCCGGGCGGTCCCACTCTTCACAGGAATCTGCACAGGTGGCTTTCACCTCTGGACAGTGCATTCCACACCCGCTCCACGGTAGAAGATGATGTGTGTCTTTGCTTGTGAAAAGCTTGTGAAAATCGTGTGTAGGCGTAGCGGCTACTTGAGTGCCAGCGGATTACCCCTAGTGGTAACACTAGCCTCTGGGCCCAAAAGGCATGTCATTTGACCACTCAGGTACACAACCCCAGTGATGCACACGCTTAGTAATGGCTTAGTAACAAACATTGATTGATCATTTGAAAGCTGTTAGGAGGTTTAGGTATGACGGGCTGAAGGATGCCCTGAAGGTACCCATAGGTAACCTTAAGCGACTATGGATCTGATCAGGGGCCCACCATGTAACACATGGGTAGAAGTCTTCGGACCTTGGGTTAAAAAACGTCTAGGCCCGCCCCCCACAGGGATGTGGGGTTTCCCTTATAACCCCAATATTGTATA
B3: Parechovirus A3 (nucleic acid, listed as Parechovirus sp.)
DNA: AGAGTCCTTTTCCCAGCCAGAGGTGGCTGGTTAAATAATACCTACTGTAACAAAACATCTAAGATGTAACAACCACACACCTGGTCTCCACTGGCCGAAGGCAACTAGCAATAAGGCAGGTGGGTTCAGACGCTTAAAGTGTGTTGTACATATTCTTTTCTAACCTGTGTTTTACACAGGGTGGCAGATGGCGTGCCATAACTCTAACAGTGAGATACCACGCTTGTGGACCTTATGCTCACACAGCCATCCTCTAGTAAGTTTGTAAGATGTCTGATGACGTGTGGGAACCTGTTGGAGATAACAGTTTGCTGCAAAGCATCCCACTGCCAGCGGATCTACATCTGGTAACAGATGCCTCTGGGGCCAAAAGCCAAGGTTTAACAGACCCTTTGGGATTGGTTCAAACCTGAACTGTTATGGAAGACATTTAGTACCTGCTGATTTGGTAGTAATGCAAACACTAGTTGTAAGGCCCACGAAGGATGCCCAGAAGGTACCCGTAGGTAACAAGTGGCACTATGGATCTGATCTGGGGCCAGCTACCTCTATCTTGGTGAGTTGGTTAAAAAACGTCTAGTGGGCCAAACCCAGGGGGGATCCTGGTTTCTTTTTAATTTAAGTAATCACT
B4: Parechovirus A8 (nucleic acid, listed as Parechovirus sp.)
DNA: GGGCCTTATACCCCGACTTGCTGAGTTTCTCTAGGAGAGTCCCTTTCCCAGCCCTGAGGCGGCTGGATAATAAAGGCCTCACATGTAACAAACATCTAAGACAAAATAATTTGCCTTGCACCTGGTCCCCACTAGTTGAAGGCATCTAGCAATAAGATGAGTGGAACAAGGACGCTTAAAGTGCAATGATAGTTATCTTTTCTAACCCACTATTTATAGTGGGGTGGTGGATGGCGCACCATAATTCTAATAGTGAGATACCACGCTTGTGGACCTTATGCTCACACAGCCATCCTCTAGTAAGTTTGTGAGACGTCTGGTGACGTGTGGGAACTTACTGGAAACAATGCTTTGCCGTAAGGCTTTCATTAGCCAGCGGACCACCACCTGGTAACAGGTGCCTCTGGGGCCAAAAGCCAAGGTTTAATAGACCCTAATGGAATGGTTCAAACCTGGAGCATTGTGGAAAGTACTTAGTACCTGCTGATCTGGTAGTAATGCAAACACTAGTTGTACGGCCCACGAAGGATGCCCAGAAGGTACCCGTAGGTAACAAGTGACACTATGGATCTGATCTGGGGCCAACTACCTCTATCTTGGTGAGTTGGTTAAAAAACGTCTAGTGGGCCAAACCCAGGGGGGATCCCTGGTTTCCTTTTATTTTACTTTGTCAAT
B5: Potamipivirus A (nucleic acid)
DNA: CACATGGAAAGCTTTTCGCTTCCATGTTTACGCACACACTCTCTTTGACACCCTGTTGTATGGTGTTAAACTACAACATTTGTCTGTCTATAATCGTTTATTTTGTTTACCCTATATGTACCCAAGTATTTGATTGCTTGACTCACATAAGCATCGGTAACCCATACTGTTTTATGAGCTACTACCTCTGCTGTCTACATACATTTTATATGAATGGTTTGAGCTCTGCCTCAGGATCAAACATGGTAACATGTTCCTTTGGTCAGTTAGAATCTTATTGTATAATCTAAGGTGTCTATTAGTACGTAGAAAGTTGTAACACATATGGGGCCTGATAGCCGCTATCTCTGATGGATGTAAGGTAACCTTCTTTAGGTCTGATACATTCTGCACAGGATCCAATTTTCGGTGCCCTGTACGAGTGCACTCTTATGCACGAGGACGAGATATGCTACAACCCACTGCAAATTTAAACCCAAACTTTAACA
modifications: Potamipivirus A
B6: Parechovirus C (nucleic acid)
DNA: CGGTCATCCCCCTTTCCCCACAGCCGGTGTGGGTTCTAATCGGCTCCTACTAAACACCTAAGCATCACTGCGCCTCTATCTCTCCTATCCACAGGTCTAAGACGCTTGGAATAAGACATGTGGGTGCAATAGGAAGATTAGCTAGTCCAATCTCTCCTTCCAGCTACGCTTCTCCCTTCGATGAGCGTAGGGGGGGCCCCCACCTCCCTCATCTCTGGATAGGGCTCTTGCTACGGGGCTTTCCCGTCTGGACCAGCAGGCCCACTGGTGCGCTTCCATTCAAGTTTAGTGTGCATTACTGTCTGAAATATTGCTTTGCTAGGATCTAGTGTAGCGACCTGCATATTGCCAGCGGACTTCCCCACATGGTAACATGTGCCTCTGGGCCCAAAAGGCATGTCTTTGACCGTATGCAGTACAACCCCAGTATAGGTCCTTTCTATGGCAGTATGGATCTCAGTGATGAGTCTATACAGAATATGGAAGTGGTTCGGATATGTCAGCCCGAAGGATGCCCAGAAGGTACCCGCAGATAACCTTAAGAGACTGTGGATCTGATCTGGGGCCCACCACCTTCGGGTGGGTAGAAGCTAACCATGCCTTGGGTTAAAAAACGTCTAAGGGCTGACCAGACCCGGGGGATCCGGGTTTTCCCTATCTTGACCTACTCTAATC
modifications: Parechovirus C
B7: Oscivirus (nucleic acid, listed as Oscivirus sp.)
DNA: CCTCGGTCCCTCTTTCCGTCGCCGCCCACGACGTTAAATGCGGTGTTGTGGTGCTTAGGTGCCACACCACTGCTATTTGGGTCCCCCTTTCCCCTATATATGTTTGTTTGTTTATTTCAATTTCTTGAGGATTGGCACCTCCTTATGCCAAATCTAAATCGTGGAGGATCCCAGGCTTTCTGGTCTTTAACAGAACTCCACGTCCAGGTCATAGAAACTGGTTGGTAGGCTGCCTGAGTAGTCCATTTGCTAGTAGTCCCTTGTGAACAGGGTGGCTCCCGTTTACTGCTGGTATTCCCGGTGTAGGTCGCCATGGTGGTAACACCATCCTGCATTGTGTGTGAACCAGTACCGCAAGGATAGCAAGGTATGAACACTTGTGGACGAAATGGTAAGTGATCAATTCACTTTCATGGCCGGAAGGTCACGTGGCAATCATGCCACCCAGGTACCCTCCTCTGGGAGGATCTGAGGGTGGGCTAAGCAGACCCTGCCATGTGGCTGAACTTTTCCCTTATTGTTTTACTTTGTAACATTTATAGTTGTGTTAGTGATTTGTGTGTTGTGCCCTTGTGAGCTATATCCAGTATAAGTTCGCAGCTAGAAGTTAATCCTTCGACATCGGCTGTATTGGAA
B8: Parechovirus A17 (nucleic acid, listed as Parechovirus sp.)
DNA: CTCTATTAGTGAGATACCACGCTTGTGGACCTTATGCTCACACAGCCATCCTCTAGTAAGTTTGTAAGACGTCTGGTGACGTGTGGGAACTTGTGGGAATCAATATTTTGCTTTAAAGCATCCATTAGCCAGCGGATAAAACACCTGGTAACAGGTGCCTCTGGGGCCAAAAGCCAAGGTTTAACAGACCCTAGTGGATTGGTTTCAAAACCTGAAATATTGTGGAACACACTCAGTACCTACTGATCTGGTAGTAATGCAAGCACTAGTTGTAAGGCCCACGAAGGATGCCCAGAAGGTACCTGTAGGGAACAAGAGACACTATAGATCTGATCTGGGGCTGGCTACCTCTATTTTGGTGAGTCAGTTAAAAAACGTCTAGTGGGCCAAACCCAGGGGGGACCCTGGTTTCCATTTATTTTACAAAGGCACT
B9: Parechovirus A2 (nucleic acid, listed as Parechovirus sp.)
DNA: GCCGTCGGGCCTTACACCCCGACTTGCTGAGTTTCTCTAGGAGAGTCCCTTTCCCAGCCAGAGGTGGCTGGTCAAACAATACCAAACGTAACTAAACATCTAAGATAACATAGCCCTATGCCTGGTCTCCACCAGTTGAAGGCATCTTGCAATAAAATGGGTGGATTAAGACGCTTAAAGCATGGAGTCAATTATCTTTTCTAACTAGTGATCTTCACTGGGTGGCAGATGGCGTGCCATAACTCTATTAGTGGGATACCACGCTCGTGGATCTTATGCCCACACAGCCATCCTCTAGTAAGTTTGCAAGGTGTCTGATGAGGCGTGGGAACTTATTGGAAATAATTACTTGCTGCGAAGCATCCTACTGCCAGCGGATCAACACCTGGTAACAGGTGCCCCTGGGGCCAAAAGCCACGGTTTAACAGACCCTTTAGGATTGGTTAAAACCTGAGTAATTATGGAAGATACTTAGTACCTACCAACTTGGTAACAGTGCAAACACTAGTTGTAAGGCCCACGAAGGATGCCCAGAAGGTACCCGCAGGTAACAAGAGACACTGTGGATCTGATCTGGGGCCACCTACCTCTATCCTGGTGAGGTGGTTAAAAAACGTCTAGTGGGCCAAACCCAGGGGGGATCCCTGGTTTCCTTATTTTAGTGTAAATGTCATT

The subject of this data set is HEK293 cells. The class given is cell-based, human. Conditions: luminescence from secreted Gluc in supernatant 24 hours after transfection of HEK293 cells; circular RNA encoding Gluc with the named IRES (UTR truncated to 675 nt).
On to B1, for which the Expression came out at 7.20E+05.

In turn, B2 displayed an Expression of 2.00E+06.

In turn, B3 showed an Expression of 3.58E+06.

Molecule B4 had an Expression of 1.61E+07.

In the case of B5, the Expression amounted to 8.43E+05.

B6 gave an Expression of 1.24E+06.

Regarding B7, the Expression was determined as 4.55E+07.

With B8, the Expression was found to be 1.20E+06.

On to B9, for which the Expression was found to be 1.80E+07.
